“Also recorded” adds a separate entry of the source.
What was measured:
IL1-Ra, TSG-6 and COX-2 = assay: Intravenous sPDNF into naïve mice, anti-inflammatory factor transcripts in heart and liver; format: in vivo
Method: FIG. 2A is a graph showing stem cell marker expression in mice administered sPDNF. One set of three wild type C57BL/6 mice received intravenous (IV) PBS without (PBS) or with sPDNF (2 mg/kg) at 0, 3 and 24 hours (sPDNF 1d), and a second set IV sPDNF (2 mg/kg) for 6 days (sPDNF 6d). Mice were sacrificed 3 hr post injection and the indicated stem cells markers were quantified in the ventricles by real time PCR, and normalized to HPRT; *, p<0.05, **, p<0.001, ***, p<0.0001; SCF, stem cell factor, ns, not significant. FIG. 2B is a graph showing stem cell marker expression in MyD88^−/− mice administered sPDNF. TLR-deficient MyD88^−/− mice (C57BL/6 background) (2/group) were injected IV with a single dose of sPDNF (2 mg/kg), sacrificed at 3 hours post-injection, and the indicated cardiac stem cell markers assessed by qPCR. Data were normalized to HPRT and made relative to vehicle-treated controls (set at 1.0 and represented by the dashed line); **, P<0.01; and ***, P<0.005. FIG. 2C is a graph showing stem cell marker expression in mice administered sPDNF at various time points after injection. […] Cardiac Sca-1 and SCF transcripts were quantified by qPCR; **, P<0.001; ***, P<0.0005. FIG. 2D is a graph showing quantitation of Sca-1 expression in various organs of mice administered sPDNF. C57BL/6 mice (3 per group), average of two experiments) were injected IV with sPDNF at 4 mg/kg body weight or PBS, sacrificed 3 hours later, and Sca-1 mRNA quantified by qPCR in the liver, heart, colon and bone marrow (*, P<0.05, **, P<0.001; ns, not significant; dotted line represents Sca-1 mRNA of vehicle-treated mice set at 1.0, data are representative of 2 experiments. […] FIG. 2F is a graph showing quantitation of expression of inflammatory markers in mice administered sPDNF. Wild type and naïve mice (5 per group) were injected IV with a single dose of sPDNF (4 mg/kg), sacrificed 3 hr post-injection, and the L-1Ra, TSG-6, COX-2, and IDO transcripts quantified in the heart and liver. […]

[1] = test system: cardiac inflammatory and fibrogenic markers; assay: Chronic Chagas cardiomyopathy (CCC) mice, transcripts by qPCR; format: in vivo
Method: FIG. 3A depicts in vivo experimental design, groups, treatment and timeline for the infective and anti-inflammatory effects of sPDNF. C57BL/6 mice (7 per group) were injected intraperitoneally with T cruzi Colombian strain (8×10^2 per mouse) and, four months later, intravenously with PBS (vehicle) or sPDNF (1 mg/kg body weight) at 0, 3, and 24 hours, weekly for 3 weeks. Mice were sacrificed 50 days after the first set of IV sPDNF treatment. FIG. 3B are images of heart (ventricle) paraffin-embedded, sectioned, and stained with H&E. Arrows indicate foci of inflammatory infiltrates, which were abundant in sham-treated (IV PBS) CCC mice and rare in IV sPDNF-treated CCC mice. Similar histology was found in other tissue sections and in a distinct set of sPDNF-treated and PBS-sham mice.
FIG. 5A is a graph showing transcript expression for inflammatory cytokines in hearts of the infected mice, as assessed by qPCR for the indicated transcripts, which were normalized to HPRT and made relative to uninfected vehicle-treated mice. Values for IFN-λ were reduced by 3-fold; **, p<0.01. FIG. 5B is a graph showing transcript expression for inflammatory cell markers in hearts of the infected mice, as assessed by qPCR for the indicated transcripts, which were normalized to HPRT and made relative to uninfected vehicle-treated mice. Values for CD8, and CD4 were reduced by 15-, and 1.5-fold, respectively; **, p<0.01, ***, p<0.001. FIG. 5C is a graph showing transcript expression for inflammatory cytokines in hearts of the infected mice, as assessed by qPCR for the indicated transcripts, which were normalized to HPRT and made relative to uninfected vehicle-treated mice. FIG. 5D is a graph showing percent reduction of cardiac inflammatory markers of mice chronically infected with T cruzi, using data from FIGS. 5A-5C. Baseline represents mean transcripts of uninfected mice. FIG. 5E is a graph showing expression of TSG-6 transcripts in heart and liver of T cruzi infected mice. Heart (ventricles+atria) and liver of mice (5 per group) infected acutely (25-day post injection) (Acute) or chronically (6-months PI, CCC, same as in FIG. 3) with T cruzi Colombian were assessed for TSG-6 transcript by qPCR and plotted relative to uninfected mice set at 1.0; **, P<0.001. […] is a graph showing TSG-6 serum levels assessed by ELISA (MyBiosource) in mice uninfected (Un-Inf) or bearing CCC and injected IV with vehicle PBS or sPDNF following the protocol described in FIG. 3. Bars represent the average (±SD) of three mice per point; two separate experiments, **, P<0.01.

[2] = hearts of infected (CCC) mice, FIG. 5B

B1: sPDNF: N-terminal short-form of T cruzi PDNF that contains Trk-binding sites, recombinant; amino acids 1-588 of SEQ ID NO: 2; JR-100 is the commercial name (protein, listed as Trypanosoma cruzi)
chain: MGKTVVVASRMFWLMFFVPLLLAICPSEPAYALAPGSSRVELFKRKNSTVPFEDKAGKVTERVVHSFRLPALVNVDGVMVAIADARYDTSNDNSLIDTVAKYSVDDGETWETQIAIKNSRVSSVSRVVDPTVIVKGNKLYVLVGSYYSSRSYWSSHGDARDWDILLAVGEVTKSTAGGKITASIKWGSPVSLKKFFPAEMEGMHTNQFLGGAGVAIVASNGNLVYPVQVTNKKKQVFSKIFYSEDDGKTWKFGKGRSDFGCSEPVALEWEGKLIINTRVDWKRRLVYESSDMEKPWVEAVGTVSRVWGPSPKSNQPGSQSSFTAVTIEGMRVMLFTHPLNFKGRWLRDRLNLWLTDNQRIYNVGQVSIGDENSAYSSVLYKDDKLYCLHEINTDEVYSLVFARLVGELRIIKSVLRSWKNWDSHLSSICTPADPAASSSESGCGPAVTTVGLVGFLSGNASQNVWEDAYRCVNASTANAERVRNGLKFAGVGGGALWPVSQQGQNQRYRFANHAFTLVASVTIHEAPRAASPLLGASLDSSGGKKLLGLSYDEKHQWQPIYGSTPVTPTGSWETGKRYHLVLTMANKI
expression of COX-2 (IL1-Ra, TSG-6 and COX-2): increased expression
expression of IL1-Ra (IL1-Ra, TSG-6 and COX-2): increased expression
expression of TSG-6 (IL1-Ra, TSG-6 and COX-2): increased expression
expression of anti-inflammatory TSG-6 in the heart and liver ([1]; CCC mice, IV): increased expression; also recorded: restored TSG-6 transcript to levels seen in acutely infected mice
transcripts of cardiac inflammatory and fibrogenic markers ([1]; CCC mice, IV): global decrease
IFN-λ transcript values reduced ([1]; hearts of infected (CCC) mice, FIG. 5A): 3 fold
CD4 transcript values reduced [1, 2]: 1.5 fold
CD8 transcript values reduced [1, 2]: 15 fold
cardiac inflammation (CD8 lymphocyte infiltrates, pro-inflammatory cytokines such as tumor necrosis factor-α) ([1]; model of chronic Chagas disease, intravenous): reduced
